Patent US20240131074A1 (published 2024)

Biological target: human PSMA protein (ELISA) (human, UniProt Q04609 44-750)
Assay: BLI (Octet)

Sequence of human PSMA protein (ELISA) (Q04609 44-750): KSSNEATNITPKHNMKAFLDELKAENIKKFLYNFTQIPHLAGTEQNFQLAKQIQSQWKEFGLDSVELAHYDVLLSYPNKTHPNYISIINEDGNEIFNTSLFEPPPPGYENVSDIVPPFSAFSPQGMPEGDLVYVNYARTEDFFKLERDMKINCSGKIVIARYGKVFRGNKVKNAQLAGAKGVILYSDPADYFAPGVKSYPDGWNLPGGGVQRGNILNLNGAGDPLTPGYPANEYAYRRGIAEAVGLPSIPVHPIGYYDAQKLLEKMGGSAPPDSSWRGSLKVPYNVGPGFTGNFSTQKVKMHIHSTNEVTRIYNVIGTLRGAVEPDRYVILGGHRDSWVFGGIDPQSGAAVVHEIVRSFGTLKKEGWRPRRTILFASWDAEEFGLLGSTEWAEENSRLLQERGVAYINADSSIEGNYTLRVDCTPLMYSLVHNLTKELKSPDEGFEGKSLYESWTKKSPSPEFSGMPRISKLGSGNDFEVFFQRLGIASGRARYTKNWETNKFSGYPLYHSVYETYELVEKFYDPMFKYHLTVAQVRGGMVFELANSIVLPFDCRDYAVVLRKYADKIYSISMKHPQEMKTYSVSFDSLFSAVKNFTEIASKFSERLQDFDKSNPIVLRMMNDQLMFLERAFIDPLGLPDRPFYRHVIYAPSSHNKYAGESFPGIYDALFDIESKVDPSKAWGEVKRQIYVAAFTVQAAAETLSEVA

Binder | Kd [nM]
Anti-PSMA heavy chain-only antibody (UniAb) Clone ID 325795 (antibody, V domains shown) VH: EVQLLESGGGLVQPGGSLRLSCAASGFTFKFYAMSWVRQAPGKGPEWVSVISGSGGSTYYADSVKGRFTISRDNSKNTLHLQMNSLRAEDTAVYFCAKEIAEASRGFDYRGQGTLVTVSS | 24.9
Anti-PSMA heavy chain-only antibody (UniAb) Clone ID 325972 (antibody, V domains shown) VH: EVQLLESGGGVVQPGRSLRLSCAASGFSFSGYGMHWVRQAPGKEREWVAVISYDGSNKYYADSVKGRFTISRDNSKNTLYLQMNSLRAEDTAVYYCAKDANWGQHPDHTSFDYRGQGTLVTVSS | 17
